Source: patent US20040171158A1 (VECTORLOGICS, published 2004)

Legend:
[1] = molecular target: T1, Ad5 fiber-zipper protein with zipper peptide EE12RR345L at the carboxy terminus of the fiber (Ad5 (adenovirus serotype 5), UniProt P11818 1-581); test: co-precipitation of cell lysate with 6His-tagged sCAR on Ni-NTA matrix, detection with anti-fiber antibody
T1 construct: Transiently expressed in 293 cells, tested as cell lysate; also called Carboxy terminus of the fiber EE12RR345L; pVS-LL-EN

[2] = molecular target: T2, Ad5 fiber-zipper protein with zipper peptide RR12EE345L at the carboxy terminus of the fiber (Ad5 (adenovirus serotype 5), UniProt P11818 1-581); test: as above
T2 construct: Transiently expressed in 293 cells, tested as cell lysate; also called Carboxy terminus of the fiber RR12EE345L; pVS-LL-RN
T2 sequence: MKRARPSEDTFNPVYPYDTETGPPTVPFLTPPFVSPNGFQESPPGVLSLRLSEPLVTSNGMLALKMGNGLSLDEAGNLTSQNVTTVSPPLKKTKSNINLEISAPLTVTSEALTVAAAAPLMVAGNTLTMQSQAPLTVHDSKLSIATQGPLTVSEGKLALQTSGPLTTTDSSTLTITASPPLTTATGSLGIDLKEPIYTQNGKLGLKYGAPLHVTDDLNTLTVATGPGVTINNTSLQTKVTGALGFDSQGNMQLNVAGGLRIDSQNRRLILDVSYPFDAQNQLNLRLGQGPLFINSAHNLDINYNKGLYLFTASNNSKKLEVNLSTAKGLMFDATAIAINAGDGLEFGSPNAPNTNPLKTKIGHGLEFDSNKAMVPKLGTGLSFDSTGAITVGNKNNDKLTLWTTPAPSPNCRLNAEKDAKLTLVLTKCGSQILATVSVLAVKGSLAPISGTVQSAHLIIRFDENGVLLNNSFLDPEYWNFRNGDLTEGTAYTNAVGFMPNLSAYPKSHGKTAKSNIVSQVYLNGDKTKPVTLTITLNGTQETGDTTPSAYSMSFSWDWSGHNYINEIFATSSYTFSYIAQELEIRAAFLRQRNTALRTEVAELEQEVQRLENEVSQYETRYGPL

B1: soluble form of the coxsackie virus and adenovirus receptor (CAR) with a carboxy terminal 6His tag (receptor)
chain: LSITTPEEMIEKAKGETAYLPCKFTLSPEDQGPLDIEWLISPADNQKVDQVIILYSGDKIYDDYYPDLKGRVHFTSNDLKSGDASINVTNLQLSDIGTYQCKVKKAPGVANKKIHLVVLVKPSGARCYVDGSEEIGSDFKIKCEPKEGSLPLQYEWQKLSDSQKMPTSWLAEMTSSVISVKNASSEYSGTYSCTVRNRVGSDQCLLRLNVVPPSNKAHHHHHH
notes: also called sCAR; native adenoviral receptor
binding result [1]: no binding | binding result [2]: no binding
